Holding throughout (format): cell-based, human
The test system of assay [1] is CD34+ HSPCs. Kind of assay: Definitive screening design cytokine screen for proT cell differentiation and expansion. To be noted: for effect on total live cells, CD7+ lymphocytes and CD7+CD5+ cells relative to the control condition: day 0-7 and day 7-14, control SCF, FLT3L, TPO, IL-7 at 20 ng/ml each, linear regression model. How it is done: For experiments 7 days or longer, HSPCs were seeded at 63-125 cells/mm^2 (equivalent to 2000-4000 cells/well of a 96-well plate) on DL4+VCAM-1-coated surfaces. Experiments shorter than 7 days (CFSE and qPCR) were seeded at 470-780 cells/mm^2 (equivalent to 15,000-25,000 cells/well of a 96-well plate) to provide enough cells for analysis. Cells were cultured in 100 μl/well (32 μl/well for 384-well plate) of Iscove's Modified Eagle Medium (IMDM) supplemented with 20% bovine serum albumin, insulin, and transferrin (BIT 9500) serum substitute (Stemcell Technologies), 1 μg/ml low-density lipoprotein (LDL; Stemcell Technologies), 60 μM ascorbic acid (Sigma), 24 μM 2-mercaptoethanol (Sigma), and 1% penicillin-streptomycin (P/S; Invitrogen). The cytokines used in control condition were SCF, FLT3L, TPO, and IL-7 (also known as the “4F cytokines”, all of which were obtained from R&D Systems), each at a concentration of 20 ng/ml or 100 ng/ml as indicated in the text. All other cytokines were purchased from R&D Systems and used in the combinations and concentrations indicated in the text. For certain experiments, the γ-secretase inhibitor (2S)-N-[(3,5-Difluorophenyl)acetyl]-L-alanyl-2-phenyl] glycine 1,1-dimethylethyl ester (DAPT) or dimethyl sulfoxide (DMSO) was added to media at the concentrations indicated in the text.
For screening experiments, a Definitive Screening Design (DSD)^7 was employed where each factor was tested at three levels (scaled to [−1,0,1]). The design included at least 2m+1 runs, where m is the number of factors, comprised of m fold-over pairs plus a center run (with all factors at level 0) and with orthogonal blocking of UCB donors.^8
Absolute cell numbers were acquired for each cell population of interest and, for initial experiments, a z-score was calculated relative to the control condition:
where SE(⋅) is the standard error. Control conditions were the cytokines used previously in the DL4+VCAM-1 assay as in Shukla et al.^6 Stepwise regression using the minimum Bayesian information criterion method was used to determine significant terms and, from this, a linear regression model of z-scores was constructed that included main and quadratic effects and two-factor interactions. This provided a better- or worse-than estimate for each factor compared to the control. The DSD layout and regression model were constructed using JMP 13 software (SAS). Follow up experiments measuring the dose response of top factors, the regression model was fit to the absolute cell count. Values were square root or log-transformed as necessary to ensure that residuals were approximately normal before fitting the regression model.
Test conditions were arranged using serial dilutions of each cytokine and laid out using an Eppendorf epMotion 5070 liquid handler in 384-well plates previously coated with DL4 and VCAM-1.
To identify factors that enhance proT cell differentiation and expansion, a two-part screen was conducted from day 0-7 and day 7-14 to separate the effects of screened molecules on HSPCs and differentiating proT cells (FIG. 1a). Screened molecules were tested at three doses each in combination using a definitive screening design (DSD) experiment and a linear regression model was fit to empirical data to estimate dose response.^7 The response to factors was measured against a control condition that contained SCF, FLT3L, TPO and IL-7 cytokines as in Shukla et al.^6 but using a lower concentration of 20 ng/ml each.
Medium gray indicates the effect of the control condition; dark gray to black indicates an effect greater than the control condition; and light gray to white indicates an effect lesser than the control condition. The size of each circle indicates the significance of the effect in the linear regression model. Combinations of factors indicate two-factor interactions (e.g., TPO*IL-1β) or quadratic effects (e.g., IL-21*IL-21) in the regression model. […] IL-3 and TNFα were selected for further investigation. […]

For assay [2], the system named is CD34+ HSPCs. Kind of assay: TPO requirement with or without TNFα, 14-day culture. To be noted: 14 days. How it is done:
To assess the requirement for TPO in T lineage development, CD34+ HSPCs were analyzed by flow cytometry after 14 days in the presence or absence of TNFα, and further in the presence or absence of TPO.

Assay [3] relates to HSPCs. Kind of assay: CFSE proliferation assay of HSPCs on DL4+VCAM-1. How it is done: To track the number of cell divisions, cells were stained with 2.5 μM CellTrace™ CFSE (ThermoFisher) in PBS and incubated at 37° C. for 8 minutes. CFSE was quenched by adding 5 times the volume of IMDM+BIT and incubating at 37° C. for 5 minutes. Cells were then resuspended in fresh media and seeded on DL4+VCAM-1 for culture. For analysis, cells were collected and stained for CD34, CD7, and CD5 surface markers as described above and analyzed using flow cytometry. Proliferation was modelled using FlowJo™ software and further analysis was performed with R.
To track the number of cell divisions in response to each of IL-3 and TNFα, the HSPCs were first stained with carboxyfluorescein succinimidyl ester (CFSE). IL-3 or TNFα were added on day 0 and the number of divisions of each cell was analyzed on days 2, 3, 4 and 5.

Assay [4] has as its system CD34+ HSPCs. Kind of assay: IL-3, TNFα or IL-3+TNFα culture on DL4+VCAM-1, flow cytometry on day 7 and day 14. The conditions noted are these: day 7 and day 14 (FIGS. 5d and e). How it is done: For experiments 7 days or longer, HSPCs were seeded at 63-125 cells/mm^2 (equivalent to 2000-4000 cells/well of a 96-well plate) on DL4+VCAM-1-coated surfaces. Experiments shorter than 7 days (CFSE and qPCR) were seeded at 470-780 cells/mm^2 (equivalent to 15,000-25,000 cells/well of a 96-well plate) to provide enough cells for analysis. Cells were cultured in 100 μl/well (32 μl/well for 384-well plate) of Iscove's Modified Eagle Medium (IMDM) supplemented with 20% bovine serum albumin, insulin, and transferrin (BIT 9500) serum substitute (Stemcell Technologies), 1 μg/ml low-density lipoprotein (LDL; Stemcell Technologies), 60 μM ascorbic acid (Sigma), 24 μM 2-mercaptoethanol (Sigma), and 1% penicillin-streptomycin (P/S; Invitrogen). The cytokines used in control condition were SCF, FLT3L, TPO, and IL-7 (also known as the “4F cytokines”, all of which were obtained from R&D Systems), each at a concentration of 20 ng/ml or 100 ng/ml as indicated in the text. All other cytokines were purchased from R&D Systems and used in the combinations and concentrations indicated in the text. For certain experiments, the γ-secretase inhibitor (2S)-N-[(3,5-Difluorophenyl)acetyl]-L-alanyl-2-phenyl] glycine 1,1-dimethylethyl ester (DAPT) or dimethyl sulfoxide (DMSO) was added to media at the concentrations indicated in the text. […]
(In general: A flow cytometer gives signals particle by particle.)

As for “SCF: cytokine stem cell factor, one of the 4F cytokines”, the “effect on total live cells, CD7+ lymphocytes and CD7+CD5+ cells relative to the control condition” value in assay [1] is “string positive effects”.
Turning to “TPO: cytokine thrombopoietin, one of the 4F cytokines”, in assay [2] (TNFα present), the “CD7+ lymphoid cell development after removal of TPO” value is recorded as “not detrimental”. Moreover, in assay [2] (absence of TNFα), the “number of CD7+ cells after removal of TPO” value is listed as “decreased significantly”. Further, in assay [2] (with or without TNFα), the “number of CD14/33+ myeloid cells after removal of TPO” value was “decreased the number of CD14/33+ myeloid cells”.

B1: IL-7: cytokine interleukin 7, one of the 4F cytokines (protein, UniProt P13232 26-177, looked up)
Interleukin-7: DCDIEGKDGKQYESVLMVSIDQLLDSMKEIGSNCLNNEFNFFKRHICDANKEGMFLFRAARKLRQFLKMNSTGDFDLHLLKVSEGTTILLNCTGQVKGRKPAALGEAQPTKSLEENKSLKEQKKLNDLCFLKRLLQEIKTCWNKILMGTKEH
Regarding B1, in assay [1], the “effect on total live cells, CD7+ lymphocytes and CD7+CD5+ cells relative to the control condition” value is “string positive effects”.

B2: IL-3: cytokine; protein that in humans is encoded by the IL3 gene (accession P08700; SEQ ID NO: 7) (protein, listed as Homo sapiens)
chain: MSRLPVLLLLQLLVRPGLQAPMTQTTPLKTSWVNCSNMIDEIITHLKQPPLPLLDFNNLNGEDQDILMENNLRRPNLEAFNRAVKSLQNASAIESILKNLLPCLPLATAAPTRHPIHIKDGDWNEFRRKLTFYLKTLENAQAQQTTLSLAIF
For B2, in assay [3] (CFSE, days 2-5), the “average number of divisions vs control” value is reported as “more divisions than the control group” and the “variance in the number of divisions vs control” value is “significantly larger variance”. In assay [3] (by day 5), the “CD7+ frequency vs control” value is “lower CD7+frequency than the control”. Besides, the “cell fraction affected (CD7− vs CD7+ cells), number of divisions” value in assay [3] (cytokine added on day 0, days 2-5) is recorded as “predominantly affecting the CD7− fraction”. For the same molecule, in assay [3] (days 2-5), the “upregulation of CD7” value was “upregulated CD7 comparably to the control”. Besides, the “number of CD14/33+ myeloid lineage cells, IL-3 compared with IL-3+TNFα conditions” value in assay [4] is “similar”. In assay [1], the “effect on total live cells, CD7+ lymphocytes and CD7+CD5+ cells relative to the control condition” value is given as “string positive effects”. Besides, in assay [1] (range of concentrations, n=2 UCB donors), the “dose response of live cells, CD7+ lymphocytes and CD7+CD5+ proT cells” value is reported as “curved response in at least one population”.

The record behind these values is patent US20220403326A1, “MEDIA FORMULATIONS AND METHODS FOR PRODUCING PROGENITOR T CELLS” (priority 2019, published 2022).
